The target in this experiment is T1, DJ-1 (human (endogenous in HEK293T)), Q99497.
T1 chain: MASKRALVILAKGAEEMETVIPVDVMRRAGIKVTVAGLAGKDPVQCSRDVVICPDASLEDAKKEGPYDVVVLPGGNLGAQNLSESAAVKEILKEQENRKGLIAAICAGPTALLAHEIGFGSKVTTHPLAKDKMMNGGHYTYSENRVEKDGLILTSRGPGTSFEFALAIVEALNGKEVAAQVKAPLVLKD
The experiment is described as follows: cross-linking. The following applies: remark: other sources report otherwise.

B1: DJ-1, Q99497 1-189 (natural protein)
chain: T1 chain
Usually stoichiometry N stands for the number of molecules, sites or subunits per partner or assembly. Molecule B1 gave a stoichiometry N of 2.

Values taken from article PMC3699067.
